± gives the standard deviation of the averaged measurements.
Assay: total protein half-life in vivo (active degradation + dilution); higher = more stable protein
[1] = E. coli NCM3722 delta-clpP delta-lon delta-hslV, growth: N-lim chemostat, doubling time 6 h
[2] = E. coli NCM3722 delta-clpP, growth: N-lim chemostat, doubling time 6 h
[3] = E. coli NCM3722 delta-hslV, growth: N-lim chemostat, doubling time 6 h
[4] = E. coli NCM3722 delta-lon, growth: N-lim chemostat, doubling time 6 h
[5] = E. coli NCM3722 delta-smpB, growth: N-lim chemostat, doubling time 6 h
[6] = wild type E. coli NCM3722, growth: C-lim chemostat, doubling time 3 h
[7] = wild type E. coli NCM3722, growth: C-lim chemostat, doubling time 6 h
[8] = wild type E. coli NCM3722, growth: C-lim chemostat, doubling time 12 h
[9] = wild type E. coli NCM3722, growth: N-lim chemostat, doubling time 6 h
[10] = wild type E. coli NCM3722, growth: N-lim chemostat, doubling time 12 h
[11] = wild type E. coli NCM3722, growth: P-lim chemostat, doubling time 6 h
[12] = wild type E. coli NCM3722, growth: P-lim chemostat, doubling time 12 h

Row | Sequence | total protein half-life in vivo [1] [h] | total protein half-life in vivo [2] [h] | total protein half-life in vivo [3] [h] | total protein half-life in vivo [4] [h] | total protein half-life in vivo [5] [h] | total protein half-life in vivo [6] [h] | total protein half-life in vivo [7] [h] | total protein half-life in vivo [8] [h] | total protein half-life in vivo [9] [h] | total protein half-life in vivo [10] [h] | total protein half-life in vivo [11] [h] | total protein half-life in vivo [12] [h]
1 | MTQVAKKILVTCALPYANGSIHLGHMLEHIQADVWVRYQRMRGHEVNFICADDAHGTPIMLKAQQLGITPEQMIGEMSQEHQTDFAGFNISYDNYHSTHSEENRQLSELIYSRLKENGFIKNRTISQLYDPEKGMFLPDRFVKGTCPKCKSPDQYGDNCEVCGATYSPTELIEPKSVVSGATPVMRDSEHFFFDLPSFSEMLQAWTRSGALQEQVANKMQEWFESGLQQWDISRDAPYFGFEIPNAPGKYFYVWLDAPIGYMGSFKNLCDKRGDSVSFDEYWKKDSTAELYHFIGKDIVYFHSLFWPAMLEGSNFRKPSNLFVHGYVTVNGAKMSKSRGTFIKASTWLNHFDADSLRYYYTAKLSSRIDDIDLNLEDFVQRVNADIVNKVVNLASRNAGFINKRFDGVLASELADPQLYKTFTDAAEVIGEAWESREFGKAVREIMALADLANRYVDEQAPWVVAKQEGRDADLQAICSMGINLFRVLMTYLKPVLPKLTERAEAFLNTELTWDGIQQPLLGHKVNPFKALYNRIDMRQVEALVEASKEEVKAAAAPVTGPLADDPIQETITFDDFAKVDLRVALIENAEFVEGSDKLLRLTLDLGGEKRNVFSGIRSAYPDPQALIGRHTIMVANLAPRKMRFGISEGMVMAAGPGGKDIFLLSPDAGAKPGHQVK | 4.5 ± 0.63 | 4.18 ± 0.33 | 4.16 ± 0.055 | 4.3651 ± 0.0038 | 4.17 ± 0.25 | 3.09 ± 0.24 | 5.54 ± 0.16 | 9.62 ± 0.28 | 4.1 ± 0.34 | 6.3 ± 0.071 | 5.51 ± 0.33 | 11.4 ± 0.34
2 | MTRAVKPRRFAIRPIIYASVLSAGVLLCAFSAHADERDQLKSIQADIAAKERAVRQKQQQRASLLAQLKKQEEAISEATRKLRETQNTLNQLNKQIDEMNASIAKLEQQKAAQERSLAAQLDAAFRQGEHTGIQLILSGEESQRGQRLQAYFGYLNQARQETIAQLKQTREEVAMQRAELEEKQSEQQTLLYEQRAQQAKLTQALNERKKTLAGLESSIQQGQQQLSELRANESRLRNSIARAEAAAKARAEREAREAQAVRDRQKEATRKGTTYKPTESEKSLMSRTGGLGAPRGQAFWPVRGPTLHRYGEQLQGELRWKGMVIGASEGTEVKAIADGRVILADWLQGYGLVVVVEHGKGDMSLYGYNQSALVSVGSQVRAGQPIALVGSSGGQGRPSLYFEIRRQGQAVNPQPWLGR | 6.31 ± 0.39 | 6.29 ± 0.37 | 6.76 ± 0.51 | 7.049 ± 0.041 | 6 ± 0.41 | 3.18 ± 0.08 | 5.778 ± 0.045 | 11.3 ± 0.53 | 6.31 ± 0.22 | 13.1 ± 0.39 | 5.92 ± 0.37 | 12.9 ± 0.95
3 | MTRLASRFGAANLIRRDRPLTREELFRVVPSVFSEDKHESRSERYTYIPTISLLDSLQREGFQPFFACQTRVRDPGRREHTKHMLRLRREGQITGKQVPEIILLNSHDGTSSYQMLPGLFRAVCQNGLVCGESFGEVRVPHKGDVVSQVIEGAYEVLGIFDRVEEKRDAMQSLLLPPPAQQALAKAALTYRFGEDHQPVTESQILSPRRWQDESNDLWTTYQRIQENLIKGGLSGRNAKGGRSHTRAVRGIDGDVKLNRALWVMAEALLTQLQ | 5.7 ± 0.74 | – | – | – | – | – | 3.1 | – | 4.67 | – | 3.42 | –
4 | MTRYQHLATLLAERIEQGLYRHGEKLPSVRSLSQEHGVSISTVQQAYQTLETMKLITPQPRSGYFVAQRKAQPPVPPMTRPVQRPVEITQWDQVLDMLEAHSDSSIVPLSKSTPDVEAPSLKPLWRELSRVVQHNLQTVLGYDLLAGQRVLREQIARLMLDSGSVVTADDIIITSGCHNSMSLALMAVCKPGDIVAVESPCYYGSMQMLRGMGVKVIEIPTDPETGISVEALELALEQWPIKGIILVPNCNNPLGFIMPDARKRAVLSLAQRHDIVIFEDDVYGELATEYPRPRTIHSWDIDGRVLLCSSFSKSIAPGLRVGWVAPGRYHDKLMHMKYAISSFNVPSTQMAAATFVLEGHYHRHIRRMRQIYQRNLALYTCWIREYFPCEICITRPKGGFLLWIELPEQVDMVCVARQLCRMKIQVAAGSIFSASGKYRNCLRINCALPLSETYREALKQIGEAVYRAME | 6.94 ± 1 | 3.72 ± 0.22 | 2.89 | – | 2.79 ± 0.039 | 3.04 ± 0.04 | 4.58 ± 0.076 | 7.69 ± 0.59 | 3.09 ± 0.11 | – | 3.19 ± 0.25 | 6.91 ± 3.5
5 | MTSLVSLENVSVSFGQRRVLSDVSLELKPGKILTLLGPNGAGKSTLVRVVLGLVTPDEGVIKRNGKLRIGYVPQKLYLDTTLPLTVNRFLRLRPGTHKEDILPALKRVQAGHLINAPMQKLSGGETQRVLLARALLNRPQLLVLDEPTQGVDVNGQVALYDLIDQLRRELDCGVLMVSHDLHLVMAKTDEVLCLNHHICCSGTPEVVSLHPEFISMFGPRGAEQLGIYRHHHNHRHDLQGRIVLRRGNDRS [P0A9X1] | 5.6 ± 0.31 | 5.12 ± 0.41 | 2.88 ± 1.1 | 2 ± 0.1 | 4.75 ± 2.8 | 2.63 ± 0.088 | 4.39 ± 0.11 | 6.41 ± 2.1 | 2.6 ± 0.37 | 5.01 ± 2 | 4.12 ± 0.059 | 7.83 ± 2
6 | MTSPNILLTRIDNRLVHGQVGVTWTSTIGANLLVVVDDVVANDDIQQKLMGITAETYGFGIRFFTIEKTINVIGKAAPHQKIFLICRTPQTVRKLVEGGIDLKDVNVGNMHFSEGKKQISSKVYVDDQDLTDLRFIKQRGVNVFIQDVPGDQKEQIPD | 5.94 ± 1 | 3.82 ± 0.62 | 4.08 ± 0.26 | – | 4.01 ± 0.37 | 3.52 ± 0.3 | 5.07 ± 0.32 | 6.95 ± 0.34 | 3.67 | 6.28 ± 0.71 | 4.28 ± 1.7 | 11 ± 0.5

From the supplement of paper PMC11246515
